Assay results reported in US7063946B2, “Methods, reagents, kits and apparatus for protein function analysis” (Meso Scale Technologies, LLC., priority 2001, dated 2006).

B1: 4419252: IMAGE clone protein: PLCγ (protein)
chain: MAGAASPCANGCGPGAPSDAEVLHLCRSLEVGTVMTLFYSKKSQRPERKTFQVKLETRQITWSRGADKIEGAIDIREIKEIRPGKTSRDFDRYQEDPAFRPDQSHCFVILYGMEFRLKTLSLQATSEDEVNMWIKGLTWLMEDTLQAPTPLQIERWLRKQFYSVDRNREDRISAKDLKNMLSQVNYRVPNMRFLRERLTDLEQRSGDITYGQFAQLYRSLMYSAQKTMDLPFLEASTLRAGERPELCRVSLPEFQQFLLDYQGELWAVDRLQVQEFMLSFLRDPLREIEEPYFFLDEFVTFLFSKENSVWNSQLDAVCPDTMNNPLSHYWISSSHNTYLTGDQFSSESSLEAYARCLRMGCRCIELDCWDGPDGMPVIYHGHTLTTKIKFSDVLHTIKEHAFVASEYPVILSIEDHCSIAQQRNMAQYFKKVLGDTLLTKPVEISADGLPSPNQLKRKILIKHKKLAEGSAYEEVPTSMMYSENDISNSIKNGILYLEDPVNHEWYPHYFVLTSSKIYYSEETSSDQGNEDEEEPKEVSSSTELHSNEKWFHGKLGAGRDGRHIAERLLTEYCIETGAPDGSFLVRESETFVGDYTLSFWRNGKVQHCRIHSRQDAGTPKFFLTDNLVFDSLYDLITHYQQVPLRCNEFEMRLSEPVPQTNAHESKEWYHASLTRAQAEHMLMRVPRDGAFLVRKRNEPNSYAISFRAEGKIKHCRVQQEGQTVMLGNSEFDSLVDLISYYEKHPLYRKMKLRYPINEEALEKIGTAEPDYGALYEGRNPGFYVEANPMPTFKCAVKALFDYKAQREDELTFIKSAIIQNVEKQEGGWWRGDYGGKKQLWFPSNYVEEMVNPVALEPEREHLDENSPLGDLLRGVLDVPACQIAIRPEGKNNRLFVFSISMASVAHWSLDVAADSQEELQDWVKKIREVAQTADARLTEGKIMERRKKIALELSELVVYCRPVPFDEEKIGTERACYRDMSSFPETKAEKYVNKAKGKKFLQYNRLQLSRIYPKGQRLDSSNYDPLPMWICGSQLVALNFQTPDKPMQMNQALFMTGRHCGYVLQPSTMRDEAFDPFDKSSLRGLEPCAISIEVLGARHLPKNGRGIVCPFVEIEVAGAEYDSTKQKTEFVVDNGLNPVWPAKPFHFQISNPEFAFLRFVVYEEDMFSDQNFLAQATFPVKGLKTGYRAVPLKNNYSEDLELASLLIKIDIFPAKENGDLSPFSGTSLRERGSDASGQLFHGRAREGSFESRYQQPFEDFRISQEHLADHFDSRERRAPRRTRVNGDNRL
B2: 4237375: IMAGE clone protein: βTRCP2 (protein)
chain: MEPDSVIEDKTIELMCSVPRSLWLGCANLVESMCALSCLQSMPSVRCLQISNGTSSVIVSRKRPSEGNYQKEKDLCIKYFDQWSESDQVEFVEHLISRMCHYQHGHINSYLKPMLQRDFITALPEQGLDHIAENILSYLDARSLCAAELVCKEWQRVISEGMLWKKLIERMVRTDPLWKGLSERRGWDQYLFKNRPTDGPPNSFYRSLYPKIIQDIETIESNWRCGRHNLQRIQCRSENSKGVYCLQYDDEKIISGLRDNSIKIWDKTSLECLKVLTGHTGSVLCLQYDERVIVTGSSDSTVRVWDVNTGEVLNTLIHHNEAVLHLRFSNGLMVTCSKDRSIAVWDMASATDITLRRVLVGHRAAVNVVDFDDKYIVSASGDRTIKVWSTSTCEFVRTLNGHKRGIACLQYRDRLVVSGSSDNTIRLWDIECGACLRVLEGHEELVRCIRFDNKRIVSGAYDGKIKVWDLQAALDPRAPASTLCLRTLVEHSGRVFRLQFDEFQIISSSHDDTILIWDFLNVPPSAQNETRSPSRTYTYISR

Legend:
EGFR [1] = molecular target: T1, EGFR (Homo sapiens, UniProt P00533); experiment: EGFR binding assay, bound EGFR detected with TAG labeled anti-EGFR
T1 construct: autophosphorylated tyrosines (self-phosphorylated with ATP before use); purchased Sigma Chemical Co, MO

EGFR [2] = molecular target: T1, EGFR; experiment: EGFR binding assay, bound EGFR detected by its tyrosine kinase activity towards pEY
Experimental: Proteins were produced in an in vitro transcription and translation reaction using 40–100 ng of plasmid DNA. […] The unbound components of the reaction containing endogenous kinases were removed by three washes with TT-buffer (25 mM Tris-HCl buffer pH 7.4 and 0.004% Triton), two five minutes washings with high-salt wash buffer (25 mM Tris-HCl buffer pH 7.4, 0.004% Triton, 1M NaCl and 5 mM DTT) and 3 more washes with TT-buffer. […] The unbound EGFR was washed by 4 times washing with TT-buffer (25 mM Tris-HCl buffer pH 7.4 and 0.004% Triton). The amount of EGFR bound to the reticulocyte lysate expressed protein was determined by detecting the kinase activity of EGFR. A tyrosine kinase substrate, 5 nM pEY (poly Glu-Tyr, Sigma, MO) was added in a 50 μl reaction containing 5 mM MgCl2, 5 mM MnCl2, 100 μM ATP, 25 mM Tris-HCl buffer pH 7.4, 0.05 mM Na3VO4, 0.004% TritonX-100, 2 mM DTT and EDTA-free protease inhibitor (Roche Molecular Biochemicals). This mixture was incubated with shaking at room temperature for 1 or 12 hours to allow phosphorylation of the pEY substrate by the EGFR. Following this incubation 45 μl of this mixture was transferred to a SA—NPT IPR plate coated with biotinylated anti-phosphotyrosine antibody (PY20, Zymed labs, CA) followed by incubation for 30 minutes at room temperature to allow the binding of the phosphorylated pEY substrate to the PY20 coated NPT plate. Following this binding step 50 ng Sulfo-TAG labeled anti-phosphotyrosine in buffer containing 25 mM Tris-HCl buffer pH 7.4, 5 mM MgCl2, 0.05 mM Na3VO4, 0.004% TritonX-100, 2 mM DTT and 0.05% IgG was added followed by incubation at room temperature for 30 mm.
The unbound reagents were removed by one time washing with TT-buffer (25 mM Tris-HCl buffer pH 7.4 and 0.004% Triton), and the TAG label was detected in presence of 150 μl IPR assay buffer (0.4 mM Gly-Gly buffer, pH 7.8, 1 mM EDTA, 0.1 M TPA). The ECL signals were measured using an imaging plate reader.

[3] = molecular target: T2, IkBa peptide [SEQ ID No. 1] (Homo sapiens, UniProt P25963); experiment: Phosphopeptide binding assay, peptide-BSA coated IPR plate
T2 construct: two phosphoserines in the DSGLDS motif (chemical modification); purchased New England Peptide, Fitchburg Mass; host or cells: chemical synthesis
Source text: A phosphopeptide derived from the IkBa degradation motif (SEQ ID NO: 1) and a phosphopeptide derived from c-Myc (SEQ ID NO: 4) were chemically synthesized (New England Peptide, Fitchburg Mass.) with the following sequences respectively:
A maleimide pre-activated BSA (Pierce, Pittsburgh Pa.), which contains estimated 17 active maleimide groups on the protein surface, was used as the protein carrier, and was supplied as a lyophilized preparation. Coupling of the IkBa peptide (SEQ ID NO: 1) to the pre-activated BSA was carried out with 2 mg BSA (30 nmol) and 17 equivalents of the 25 residue phosphopeptide in 400 μl PBS. The reaction was terminated with 2 mM […] after incubation at room temperature for 30 minutes. The peptide:BSA conjugate was then purified on PD-10 gel filtration column to remove uncoupled peptide and analyzed with SDS PAGE to monitor the coupling reaction. […] After coupling and purification, the column fractions containing the peptide:BSA conjugates were pooled and the protein concentration of the pooled samples was determined by BCA assay (Pierce, Pittsburgh Pa.). NaN3, (0.02%) was added to the final peptide:BSA conjugate sample for long term storage at 4° C. […]
Two βTRCP genes, βTRCP1 and βTRCP2, are present in the human genome on chromosome 5 and 10, respectively. […] The ECL signals were measured using an imaging plate reader (IPR).

T2 sequence (P25963 with tags, fused parts or gaps limits assumed): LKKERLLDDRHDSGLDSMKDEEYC

Molecule	ECL signal (EGFR [1]; +EGFR)	ECL signal (EGFR [1]; no EGFR)	ECL signal (EGFR [2]; +EGFR, reaction time 1 hr)	ECL signal (EGFR [2]; +EGFR, reaction time 12 hr)	ECL signal (EGFR [2]; no EGFR)	Average ECL signal, IkBa peptide [SEQ ID No. 1] [3]
B1	30,389	2,271	17,966	39,767	1,695	–
B2	–	–	–	–	–	21501
